Test [1] concerns the target T1, hFcgRIIaH (human, UniProt P12318 34-217).
T1 construct: extracellular domain; also called human FcγRIIa type H (H131)
T1 sequence (looked up): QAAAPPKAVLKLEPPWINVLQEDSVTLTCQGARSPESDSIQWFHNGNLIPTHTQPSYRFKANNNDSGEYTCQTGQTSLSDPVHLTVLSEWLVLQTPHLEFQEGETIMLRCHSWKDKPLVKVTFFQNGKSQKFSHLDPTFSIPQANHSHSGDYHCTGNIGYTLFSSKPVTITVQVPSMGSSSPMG
Description: SPR 25C.

The target in test [2] is T2, hFcgRIIIaV (human, UniProt P08637 17-208).
T2 construct: extracellular domain; also called human FcγRIIIa allotype V158
In words: SPR 25C.

Test [3] has as its target T3, hFcgRIIIaF (human, UniProt P08637 17-208).
T3 construct: extracellular domain; also called human FcγRIIIa allotype F158
Description: SPR 25C.

Test [4] concerns the target T4, hFcgRIIb (human, UniProt P31994 43-217).
T4 construct: extracellular domain; also called human FcγRIIb
T4 sequence (looked up): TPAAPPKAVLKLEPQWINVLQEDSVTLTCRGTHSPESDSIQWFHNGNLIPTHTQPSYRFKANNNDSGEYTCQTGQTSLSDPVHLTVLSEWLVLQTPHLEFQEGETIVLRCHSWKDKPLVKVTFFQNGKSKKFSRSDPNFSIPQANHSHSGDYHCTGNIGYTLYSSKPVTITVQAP
Description: SPR 25C.

The target in test [5] is T5, hFcgRIIaR (human, UniProt P12318 34-217).
T5 construct: extracellular domain; also called human FcγRIIa type R (R131)
T5 sequence (looked up): T1 sequence (looked up) with H134R
Description: SPR 25C.

Test [6] concerns the target T6, hFcgRIa (human, UniProt P12314 16-292).
T6 construct: extracellular domain; also called human FcγRIa; FcγRI
Description: SPR 25C.

The target in a further test is human FcRn (human, UniProt P55899 24-290; P61769 21-119, limits assumed). In words: SPR 25C pH 6.0, steady state.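 Note: antibody captured on chip via anti-human Fab-lambda ligand, human FcRn injected as analyte in 50 mM phosphate buffer with 150 mM NaCl and P20.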
Test [7] concerns the target T1, hFcgRIIaH. In words: SPR 25C; relative to A375-G1T3/B167-Lamlib.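 Note: SPR with antibody captured on an anti-human Fab-lambda chip, human FcγR analyte at 8 nM for FcγRIa or 1000 nM for the others, pH 7.4, FcγR RU per captured antibody unit.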
Test [8] concerns the target T2, hFcgRIIIaV. In words: SPR 25C; relative to A375-G1T3/B167-Lamlib.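 Note: SPR with antibody captured on an anti-human Fab-lambda chip, human FcγR analyte at 8 nM for FcγRIa or 1000 nM for the others, pH 7.4, FcγR RU per captured antibody unit.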
Test [9] addresses T3, hFcgRIIIaF. In words: SPR 25C; relative to A375-G1T3/B167-Lamlib.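 Note: SPR with antibody captured on an anti-human Fab-lambda chip, human FcγR analyte at 8 nM for FcγRIa or 1000 nM for the others, pH 7.4, FcγR RU per captured antibody unit.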
Test [10] deals with T4, hFcgRIIb. In words: SPR 25C; relative to A375-G1T3/B167-Lamlib.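 Note: SPR with antibody captured on an anti-human Fab-lambda chip, human FcγR analyte at 8 nM for FcγRIa or 1000 nM for the others, pH 7.4, FcγR RU per captured antibody unit.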
Test [11] deals with T5, hFcgRIIaR. Description: SPR 25C; relative to A375-G1T3/B167-Lamlib.
Test [12] deals with T6, hFcgRIa. Description: SPR 25C; relative to A375-G1T3/B167-Lamlib.

Changes are numbered by the printed parent chain.
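Throughout, for binding per 1RU of antibody: biacore SPR with antibody captured on an anti-human Fab lambda chip, human FcγR injected at 1000 nM (FcγRIa at 8 nM) in pH 7.4 phosphate buffer.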

T2 sequence (P08637 17-208 F176V): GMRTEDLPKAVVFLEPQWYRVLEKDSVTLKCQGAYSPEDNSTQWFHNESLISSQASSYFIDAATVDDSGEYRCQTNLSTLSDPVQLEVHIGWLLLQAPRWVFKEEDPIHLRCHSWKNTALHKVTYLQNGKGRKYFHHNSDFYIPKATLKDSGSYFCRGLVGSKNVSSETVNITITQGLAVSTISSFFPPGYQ
human FcRn, sequence (P55899 24-290 limits assumed, chain 1 of 2): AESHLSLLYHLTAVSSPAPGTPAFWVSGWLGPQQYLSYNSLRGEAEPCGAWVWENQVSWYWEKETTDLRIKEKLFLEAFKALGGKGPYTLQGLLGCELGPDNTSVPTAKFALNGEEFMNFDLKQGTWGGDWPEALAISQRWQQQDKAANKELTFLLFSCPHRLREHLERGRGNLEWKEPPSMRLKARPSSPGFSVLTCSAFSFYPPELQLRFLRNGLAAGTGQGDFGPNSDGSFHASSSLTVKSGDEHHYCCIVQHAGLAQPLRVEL
human FcRn, sequence (P61769 21-119 limits assumed, chain 2 of 2): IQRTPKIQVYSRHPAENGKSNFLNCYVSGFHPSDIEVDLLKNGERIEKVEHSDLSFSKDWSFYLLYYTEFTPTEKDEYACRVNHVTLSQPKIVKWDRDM
T6 sequence (P12314 16-292): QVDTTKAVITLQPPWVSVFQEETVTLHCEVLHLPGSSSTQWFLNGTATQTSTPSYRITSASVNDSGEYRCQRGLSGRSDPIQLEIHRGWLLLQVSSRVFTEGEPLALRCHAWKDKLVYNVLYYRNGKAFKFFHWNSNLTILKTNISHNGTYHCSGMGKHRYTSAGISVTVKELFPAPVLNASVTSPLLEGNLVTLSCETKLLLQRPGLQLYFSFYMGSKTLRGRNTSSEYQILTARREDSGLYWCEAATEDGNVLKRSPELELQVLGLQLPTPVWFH
T3 sequence (P08637 17-208): as the sequence (P08637 17-208 F176V) above, with V160F counted along it

B1: A375-SCF043a/B167-Lamlib (antibody, human IgG1, lambda)
heavy: EVQLVESGGGLVKPGGSLRLSCAASGFTFSTFTMNWVRQAPGKGLEWVSSISSKSTYIEYADSFKVRFTISRDNAKNSLYLQMNSLRAEDTAVYYCARYGAKNFLNWVFDYWGQGTLVTVSSASTKGPSVFPLAPSSKSTSGGTAALGCLVKDYFPEPVTVSWNSGALTSGVHTFPAVLQSSGLYSLSSVVTVPSSSLGTQTYICNVNHKPSNTKVDKRVEPKSCDKTHTCPPCPAPELLNGPSVFLFPPKPKDTLMISRTPEVTCVVVDVSDEDPEVKFNWYVDGVEVHNAKTKPREEQYNSTYRVVSVLTVLHQDWLNGKEYKCKVSNKALPKPIEKTISKAKGQRREPQVYTLPPSREEMTKNQVSLTCLVKGFYPSDIAVEWESNGQPENNYKTTPPVLDSDGSFFLYSKLTVKKSRWQQGNVFSCSVMHEALHNHYTQKSLSLSP
light: QSALTQPPSASGSPGQTVTISCTGTRYDVGYYEYVSWYQQHPGKAPKLMIYETSKRLSGVPDRFSGSKSGNTASLTVSGLQAEDEADYYCSSYRYEHQVSFGGGTKLTVLGQPKAAPSVTLFPPSSEELQANKATLVCLISDFYPGAVTVAWKADSSPVKAGVETTTPSKQSNNKYAASSYLSLTPEQWKSHRSYSCQVTHEGSTVEKTVAPTECS
With B1, the “binding per 1RU of antibody” value with hFcgRIIaH [1] worked out at 0.0552 RU; with hFcgRIIIaV [2] it was 0.0025 RU; with hFcgRIIIaF [3], 0.0011 RU; with hFcgRIIb [4] it was 0.0419 RU; with hFcgRIIaR [5], 0.0361 RU; with hFcgRIa [6], 0.0429 RU. The molecule further registered an equilibrium dissociation constant (Kd) with human FcRn of 1.18 µM. The relative binding amount came to 0.97 with hFcgRIIaH [7]; 0.04 in the test with hFcgRIIIaV [8]; 0.05 in the test with hFcgRIIIaF [9]; 3.82 with hFcgRIIb [10]; 0.78 with hFcgRIIaR [11]; 0.53 with hFcgRIa [12].

B2: A375-SCF043aPh/B167-Lamlib (antibody, human IgG1, lambda)
heavy: B1 heavy with L240W
light: B1 light
For B2, the “binding per 1RU of antibody” value with hFcgRIIaH [1] was found to be 0.0349 RU; with hFcgRIIIaV [2] it was 0.0001 RU; with hFcgRIIIaF [3], 0.0001 RU; in the test with hFcgRIIb [4], 0.0339 RU; with hFcgRIIaR [5], 0.0349 RU; in the test with hFcgRIa [6], 0.0011 RU. In the test with human FcRn, this molecule came in with an equilibrium dissociation constant (Kd) of 1.21 µM. In addition, the relative binding amount with hFcgRIIaH [7] is 0.62; in the test with hFcgRIIIaV [8], 0; with hFcgRIIIaF [9], 0; in the test with hFcgRIIb [10], 3.1; in the test with hFcgRIIaR [11] it was 0.75; with hFcgRIa [12], 0.01.

B3: A375-SCF059aPh/B167-Lamlib (antibody, human IgG1, lambda)
heavy: B1 heavy with L240W, Q316R, R348P
light: B1 light
notes: copies: 2 + 2
Regarding B3, the “binding per 1RU of antibody” value in the test with hFcgRIIaH [1] came to 0.0332 RU; with hFcgRIIIaV [2] it was 0.0028 RU; in the test with hFcgRIIIaF [3], 0.0003 RU; with hFcgRIIb [4], 0.0291 RU; with hFcgRIIaR [5], 0.0319 RU; with hFcgRIa [6], 0.0089 RU. The molecule also had a Kd with human FcRn of 1.05 µM. Also, the relative binding amount in the test with hFcgRIIaH [7] is 0.59; in the test with hFcgRIIIaV [8], 0.04; with hFcgRIIIaF [9], 0.01; with hFcgRIIb [10], 2.66; in the test with hFcgRIIaR [11], 0.69; with hFcgRIa [12] it was 0.11.

B4: A375-SCF056aPh/B167-Lamlib (antibody, human IgG1, lambda)
heavy: B1 heavy with L240W, Q316R, R348P, K418D
light: B1 light
notes: copies: 2 + 2
Turning to B4, the “binding per 1RU of antibody” value is 0.0314 RU in the test with hFcgRIIaH [1]; 0.001 RU with hFcgRIIIaV [2]; 0.001 RU in the test with hFcgRIIIaF [3]; 0.0292 RU with hFcgRIIb [4]; 0.0299 RU in the test with hFcgRIIaR [5]; 0.0019 RU in the test with hFcgRIa [6]. Moreover, the Kd with human FcRn came out at 1 µM. Besides, the relative binding amount with hFcgRIIaH [7] came out at 0.55; with hFcgRIIIaV [8], 0.01; with hFcgRIIIaF [9], 0.05; in the test with hFcgRIIb [10], 2.67; with hFcgRIIaR [11], 0.64; in the test with hFcgRIa [12] it was 0.02.

B5: A375-SCF057a/B167-Lamlib (antibody, human IgG1, lambda)
heavy: B1 heavy with Q316R, K418D
light: B1 light
With B5, the “binding per 1RU of antibody” value with hFcgRIIaH [1] stood at 0.0525 RU; in the test with hFcgRIIIaV [2] it was 0.0025 RU; with hFcgRIIIaF [3], 0.0013 RU; with hFcgRIIb [4], 0.0412 RU; with hFcgRIIaR [5] it was 0.0367 RU; with hFcgRIa [6] it was 0.0405 RU. Further, the Kd with human FcRn was 0.928 µM. Besides, the relative binding amount was found to be 0.93 with hFcgRIIaH [7]; 0.04 with hFcgRIIIaV [8]; 0.06 in the test with hFcgRIIIaF [9]; 3.76 with hFcgRIIb [10]; 0.79 in the test with hFcgRIIaR [11]; 0.5 with hFcgRIa [12].

B6: A375-SCF056a/B167-Lamlib (antibody, human IgG1, lambda)
heavy: B1 heavy with Q316R, R348P, K418D
light: B1 light
notes: copies: 2 + 2
Turning to B6, the “binding per 1RU of antibody” value came to 0.0529 RU in the test with hFcgRIIaH [1]; 0.0023 RU with hFcgRIIIaV [2]; 0.0011 RU with hFcgRIIIaF [3]; 0.0399 RU in the test with hFcgRIIb [4]; 0.0331 RU in the test with hFcgRIIaR [5]; 0.0395 RU in the test with hFcgRIa [6]. The molecule also registered a Kd with human FcRn of 0.956 µM. For the same molecule, the relative binding amount with hFcgRIIaH [7] was determined as 0.93; in the test with hFcgRIIIaV [8] it was 0.03; with hFcgRIIIaF [9] it was 0.05; in the test with hFcgRIIb [10], 3.64; in the test with hFcgRIIaR [11] it was 0.71; in the test with hFcgRIa [12] it was 0.49.

B7: A375-SCF060a/B167-Lamlib (antibody, human IgG1, lambda)
heavy: B1 heavy with L240W, Q300L, Q316R, K331T, R348P, K418D
light: B1 light
notes: copies: 2 + 2
With B7, the “binding per 1RU of antibody” value with hFcgRIIaH [1] was 0.0463 RU; with hFcgRIIIaV [2] it was 0.0008 RU; in the test with hFcgRIIIaF [3], 0.0011 RU; with hFcgRIIb [4], 0.0472 RU; in the test with hFcgRIIaR [5] it was 0.0459 RU; with hFcgRIa [6], 0.0021 RU. The molecule also yielded a Kd with human FcRn of 1.01 µM. Moreover, the relative binding amount in the test with hFcgRIIaH [7] worked out at 0.82; with hFcgRIIIaV [8] it was 0.01; in the test with hFcgRIIIaF [9], 0.05; in the test with hFcgRIIb [10] it was 4.31; with hFcgRIIaR [11] it was 0.99; in the test with hFcgRIa [12] it was 0.03.

B8: A375-SCF059a/B167-Lamlib (antibody, human IgG1, lambda)
heavy: B1 heavy with Q316R, R348P
light: B1 light
notes: copies: 2 + 2
As to B8, the “binding per 1RU of antibody” value with hFcgRIIaH [1] is 0.0502 RU; in the test with hFcgRIIIaV [2] it was 0.0021 RU; with hFcgRIIIaF [3], 0.001 RU; with hFcgRIIb [4], 0.0358 RU; with hFcgRIIaR [5] it was 0.0319 RU; in the test with hFcgRIa [6], 0.038 RU. Moreover, the Kd with human FcRn came to 1.03 µM. In addition, the relative binding amount is 0.88 with hFcgRIIaH [7]; 0.03 with hFcgRIIIaV [8]; 0.05 with hFcgRIIIaF [9]; 3.27 with hFcgRIIb [10]; 0.69 with hFcgRIIaR [11]; 0.47 with hFcgRIa [12].

B9: A375-SCF057aPh/B167-Lamlib (antibody, human IgG1, lambda)
heavy: B1 heavy with L240W, Q316R, K418D
light: B1 light
With B9, the “binding per 1RU of antibody” value was 0.0365 RU with hFcgRIIaH [1]; 0.0005 RU with hFcgRIIIaV [2]; -0.0003 RU with hFcgRIIIaF [3]; 0.0345 RU with hFcgRIIb [4]; 0.0364 RU with hFcgRIIaR [5]; 0.0021 RU in the test with hFcgRIa [6]. Moreover, the Kd in the test with human FcRn was determined as 0.909 µM. Moreover, the relative binding amount with hFcgRIIaH [7] was 0.64; with hFcgRIIIaV [8], 0.01; with hFcgRIIIaF [9] it was -0.02; with hFcgRIIb [10], 3.15; in the test with hFcgRIIaR [11] it was 0.79; in the test with hFcgRIa [12], 0.03.

As usually defined, the Kd is the constant that tells how readily two partners part at equilibrium. Low values mean tighter binding, high ones weaker binding.

Source of the values: patent US20210324099A1 (Chugai, published 2021).
